The data set deals with MBP-p33C (C-terminal soluble portion of p33 replication protein) (Tomato bushy stunt virus). Nature of the data set: biotin-RNA pull-down, anti-p33 immunoblot. To be noted: EMSA: 10 mM HEPES pH 7.4, 50 mM NaCl, 1 mM DTT, 1 mM EDTA, 5% glycerol, 2.5 mM MgCl2, 0.1 ug tRNA, 2 U RNase inhibitor, 10 ul, 0.1 pmol RNA (EMSA temperature …).

RII(+) returned a binding signal (% of MBP control) of 50.
